Reference: article PMC4031664 (Prion, 2013)

Target: T1, tandem OR repeats of mouse PrP (Mus musculus)
T1 chain: PHGGSWGQPHGGSWGQ
Test: crystal structure

B1: Fab fragment of the monoclonal POM2 IgG (Fab, V domains shown)
VH: VKLQESGGEVVRPGTSVKVSCKASGYAFTNYLIEWVKQRPGQGLEWIGVINPGSGDTNYNEKFKGKATLTADKSSSTAYMQLNSLTSDDSAVYFCARSGAAAPTYYAMDYWGQGVSVTVSS
VL: DIVMTQSHKFMSTSVGDRVSITCKASQVGTALAWYQQKPGQSPKLLIYWASTRHTGVPDRFTGSGSGTDFTLTISNVQSEDLSDYFCQQYSSYPTFGGGTKLEIK
Does B1 bind?
Result: binds
